The results in this text go back to US20150232852.

By Kd is commonly meant the constant that tells how readily two partners part at equilibrium. High values mean lower affinity, low ones higher affinity.

Data set [1] deals with D-glucagon (all D-amino acids), biotinylated (Homo sapiens) (UniProt P01275). The data set can be described thus: pulldown. As to conditions: D-DNA; 37 C, 1 mM Mg, 1 mM Ca, pH 7.4; direct pull-down.
Data set [2] deals with glucagon, L-form, biotinylated (glucagon1-29-AEEAc-AEEAc-biotin) (Homo sapiens) (UniProt P01275). The data set can be described thus: pulldown. As to conditions: L-DNA; 37 C, 1 mM Mg, 1 mM Ca, pH 7.4; direct pull-down, spiegelmer.
glucagon, L-form, biotinylated (glucagon1-29-AEEAc-AEEAc-biotin) (Homo sapiens), sequence (P01275 53-81): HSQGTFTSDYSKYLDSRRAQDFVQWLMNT

For the sequence “CGACTCGAGAGGAAAGGTTGGTAAAGGTTCGGTTGGATTCACTCGAGTCG [259-H6-001 (aptamer)]”, in data set [1], the Kd was found to be 33 nM.
Same read-out and setting: the figure for “GCAGTGGGGAAATGGGAGGGCTAGGTGGAAGGAATCTGAGCTACTGC [257-E1-001 (aptamer)]” is 137 nM.
For the sequence “GCAGTGGGGAAATGGGAGGGCTAGGTGGAAGGAATCTGAGCTACTGC [257-E1-001 (spiegelmer)]”, in data set [2], the Kd worked out at 179 nM.
